Key:
1G4 TCR [1] = assay: flow cytometry; PE tetramer (1 µg/mL) on human T cells transduced with the 1G4 TCR; tetramer from TAPBPR-catalysed peptide exchange; no percent sign printed
1G4 TCR [2] = assay: flow cytometry; PE tetramer (1 µg/mL) on human T cells transduced with the 1G4 TCR; negative control; no percent sign printed
[3] = biological target: MR1 C262S loaded with acetyl-6-formylpterin (Ac-6-FP) (UniProt Q95460); assay: SPR; MR1 C262S/Ac-6-FP, 10 to 100 µM, over hTAPBPR^RQ-biotin on a streptavidin chip; steady-state fit in the inset
[4] = biological target: MR1 C262S loaded with acetyl-6-formylpterin (Ac-6-FP) (UniProt Q95460); assay: SPR, TAPBPR-biotin on streptavidin chip, Ac-6-FP loaded MR1 C262S as analyte
[5] = biological target: HLA-A*01:01/hb2m/STAPGJLEY (peptide-loaded) (human); assay: cell-based or functional assay
[6] = biological target: HLA-A*24:02/hb2m/VYGJVRACL (peptide-loaded) (human); assay: SPR; HLA-A*24:02/[..], 0.1 to 10 µM, over chicken TAPBPR-biotin on a streptavidin chip; kinetic fit
[7] = biological target: peptide-deficient (empty) HLA-A*30:01/hb2m (human); assay: SPR, TAPBPR-biotin on streptavidin chip, UV-irradiated (empty) HLA as analyte
[8] = biological target: peptide-deficient (empty) HLA-B*08:01/hb2m (human) (UniProt P01889); assay: as above
[9] = biological target: peptide-deficient (empty) HLA-G*01:01/hb2m (human); assay: as above
[10] = biological target: peptide-deficient (empty) HLA-A*01:01/hb2m (human); assay: as above
[11] = biological target: peptide-deficient (empty) HLA-B*37:01/hb2m (human); assay: as above
[12] = biological target: peptide-deficient (empty) HLA-A*29:02/hb2m (human); assay: as above
[13] = biological target: peptide-deficient (empty) HLA-A*02:01/hb2m (human); assay: as above
[14] = biological target: peptide-deficient (empty) HLA-A*24:02/hb2m (human); assay: as above
[15] = biological target: peptide-deficient (empty) HLA-A*68:02/hb2m (human); assay: as above
[16] = biological target: peptide-deficient (empty) HLA-A*11:01/hb2m (human); assay: as above
[17] = biological target: HLA-F*01:01/hb2m/LILRWE(bF)D (human); assay: SPR; HLA-F*01:01/hb2m/LILRWE(bF)D, 0.0625 to 2 µM, over chTAPBPR-biotin on a streptavidin chip; kinetic fit
[18] = biological target: HLA-B*08:01/hb2m/FLRGRAJGL (peptide-loaded) (human)
[19] = biological target: HLA-A*29:02/hb2m/VFAQVKQJY (peptide-loaded) (human); assay: SPR, TAPBPR-biotin on streptavidin chip, peptide-loaded HLA as analyte
[20] = biological target: HLA-A*24:02/hb2m/VYGJVRACL (peptide-loaded) (human); assay: as above
1G4 TCR [21] = assay: flow cytometry; PE tetramer (1 µg/mL) on human T cells transduced with the 1G4 TCR; tetramer from conventional refolding; no percent sign printed
[22] = biological target: MR1 C262S loaded with acetyl-6-formylpterin (Ac-6-FP) (UniProt Q95460); assay: SPR; MR1 C262S/Ac-6-FP, 10 to 100 µM, over hTAPBPR^KRQ-biotin on a streptavidin chip; steady-state fit in the inset

Exchanged S1A (NY-ESO-1) (from UniProt A*02:01) (peptide-MHC)
tet+ (share of events in the tetramer-positive live gate) (1G4 TCR [1]): 72.1

Refolded Rubella (from UniProt A*02:01) (peptide-MHC)
tet+ (share of events in the tetramer-positive live gate) (1G4 TCR [2]): 0.75

hTAPBPR^RQ (K211R, R270Q) (from UniProt Q9BX59 22-405)
Kd [3]: 49500 nM

human TAPBPR luminal domain (hTAPBPR) (from UniProt Q9BX59 22-405)
Kd [4]: 98700 nM

chicken TAPBPR luminal domain (chTAPBPR)
Kd [4]: 19200 nM | kapp of fluorescent peptide binding at 5 uM chaperone (FP) [5]: 0.00017 s⁻¹ | Kd [6]: 370 nM | Kd [7]: 1280 nM | Kd [8]: 1890 nM | Kd [9]: 11200 nM | Kd [10]: 1460 nM | Kd [11]: 2190 nM | Kd [12]: 290 nM | Kd [13]: 2960 nM | Kd [14]: 1680 nM | Kd [15]: 430 nM | Kd [16]: 910 nM | Kd [17]: 760 nM | -TΔS [18]: -11.5 kcal/mol | ΔG [18]: -4.5 kcal/mol | ΔH [18]: 7 kcal/mol | Kd [19]: 170 nM | Kd [20]: 17400 nM

NY-ESO-1 (HLA-A*02:01/… tetramer) (peptide-MHC)
tet+ (share of events in the tetramer-positive live gate) (1G4 TCR [21]): 78.7 | tet+ (share of events in the tetramer-positive live gate) (1G4 TCR [1]): 71.4

Exchanged A2/W5A (NY-ESO-1) (from UniProt A*02:01) (peptide-MHC)
tet+ (share of events in the tetramer-positive live gate) (1G4 TCR [1]): 2.18

hTAPBPR^KRQ (R105K, K211R, R270Q) (from UniProt Q9BX59 22-405)
Kd [22]: 62000 nM

Exchanged A2/M4A (NY-ESO-1) (from UniProt A*02:01) (peptide-MHC)
tet+ (share of events in the tetramer-positive live gate) (1G4 TCR [1]): 38.7
